Data reported in US5840683A, “Peptides inhibiting the oncogenic action of p21 ras” (Innapharma, Inc., dated 1998).

T1: human oncogenic ras p21 (human)
T1 chain: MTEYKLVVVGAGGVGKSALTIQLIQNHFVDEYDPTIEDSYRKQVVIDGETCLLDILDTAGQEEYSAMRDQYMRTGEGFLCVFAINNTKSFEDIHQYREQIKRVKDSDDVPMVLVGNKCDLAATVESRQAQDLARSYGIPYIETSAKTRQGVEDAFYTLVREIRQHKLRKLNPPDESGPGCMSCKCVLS

B1: Val-Val-Ile (peptide)
peptide: VVI
B2: peptide of SEQ ID NO:1, Ile-Lys-Arg-Val-Lys-Asp (peptide)
peptide: IKRVKD
B3: peptide of SEQ ID NO:4, Asp-Leu-Ala-Ala (peptide)
peptide: DLAA
B4: peptide of SEQ ID NO:2, Lys-Cys-Asp-Leu-Ala (peptide)
peptide: KCDLA
B5: peptide of SEQ ID NO:9, Cys-Asp-Leu-Ala-Ala-Arg-Thr (peptide)
peptide: CDLAART
B6: peptide of SEQ ID NO:6, Thr-Ile-Glu-Asp-Ser-Tyr-Arg-Lys-Gln-Val-Val-Ile-Asp (peptide)
peptide: TIEDSYRKQVVID
B7: peptide of SEQ ID NO:8, Gly-Asn-Lys-Cys-Asp-Leu-Ala-Ala-Arg-Thr-Val-Glu (peptide)
peptide: GNKCDLAARTVE
B8: peptide of SEQ ID NO:7, Tyr-Arg-Glu-Gln-Ile-Lys-Arg-Val-Lys-Asp-Ser-Asp-Asp-Val-Pro (peptide)
peptide: YREQIKRVKDSDDVP
B9: Lys-Arg-Val (peptide)
peptide: KRV

Target: T1, human oncogenic ras p21
Assay: cell-based or functional assay
Conditions: not given

Molecule | Present Inhibition of ras-Induced Maturation
B1 | 34%
B2 | 76%
B3 | 22%
B4 | 38%
B5 | 65%
B6 | 28%
B7 | 92%
B8 | 56%
B9 | 22%

test system: oncogenic ras-p-21; assay: not given; conditions: background statement; cited from earlier work

Molecule | inhibition of oncogenic ras-p-21
N[C@@H](Cc1ccc(O)cn1)C(=O)O [Azatyrosine] | strongly inhibits
